The results in this text go back to article doi:10.1101/2021.10.07.463402.

This test deals with SARS-CoV-2 spike glycoprotein (S), wild type (SARS-CoV-2 strain Wuhan-Hu-1). Briefly: native gel or EMSA.

Take “SARS-CoV-2 spike glycoprotein (S), wild type (natural protein)”: the stoichiometry N is 3.

In general, stoichiometry N refers to the number of molecules, sites or subunits per partner or assembly.
